Laboratory results reported in US20180072815A1.

Molecular target: commercially available anti-Stat3 antibody (Abcam)
Experiment: ELISA, antibody coated directly at 1 µg/mL

his-probe (H-3) biotin labeled antibody gave an OD450 Values of 0.018 OD450.
